Changes are numbered by the printed parent chain. In names and notes the source's numbering stands.
B1: F010301055 (VHH)
VHH: EVQLVESGGGLVQPGGSLRLSCAASGMLFNANTQGWYRQAPGKQRELVAFIFWGGYVNYVDSVKGRFTISRDNAKRTMYLQMNSLKPEDSAIYYCSLSRYLGQGTLVTVSS
notes: vs F0103265A11: S53W, T57V
B2: F010301113 (VHH)
VHH: B1 VHH with A31R, W53S, V57T, V60N, R99V, L101Q
notes: vs F0103265A11: A31R, V60N, R101V, L103Q
B3: F010301059 (VHH)
VHH: B1 VHH with W53S, V60N, S96A, L101Q
notes: vs F0103265A11: T57V, V60N, S93A, L103Q
B4: F010301111 (VHH)
VHH: B1 VHH with W53S, V60N, S96A
notes: vs F0103265A11: T57V, V60N, S93A
B5: F010301099 (VHH)
VHH: B1 VHH with W53S, Y56W, N58T
notes: vs F0103265A11: Y56W, T57V, N58T
B6: F010302329 (VHH)
VHH: EVQLVESGGGVVQPGGSLRLSCAASGPVFNINRMAWYRQAPGKQRELVAYVTPTGDISYADSVKGRFTISRDGSKRVYLQMNSLRPEDTALYYCRALLQPDRYSNTRTYWGQGTLVTVSS
notes: also called F0103387G04(L11V, A12V, K33R, R39Q, S50Y, S56D, T60A, W78V, S79Y, T83R, V89L, N93R, S100R)
B7: F010301865 (VHH)
VHH: B6 VHH with R102S, S120A
notes: also called F0103387G04(L11V, A12V, K33R, R39Q, S50Y, S56D, T60A, W78V, S79Y, T83R, V89L, N93R)
B8: F010302330 (VHH)
VHH: B6 VHH with G73A
notes: also called F0103387G04(L11V, A12V, K33R, R39Q, S50Y, S56D, T60A, G73A, W78V, S79Y, T83R, V89L, N93R, S100R)
B9: F010302371 (VHH)
VHH: B6 VHH with G73R, D101N, R102V, N105I
notes: also called F0103387G04(L11V, A12V, K33R, R39Q, S50Y, S56D, T60A, G73R, W78V, S79Y, T83R, V89L, N93R, D99N, S100V, N100cI)
B10: F010302331 (VHH)
VHH: B6 VHH with G73R
notes: also called F0103387G04(L11V, A12V, K33R, R39Q, S50Y, S56D, T60A, G73R, W78V, S79Y, T83R, V89L, N93R, S100R)
B11: F010302372 (VHH)
VHH: B6 VHH with G73R, R102V, N105I
notes: also called F0103387G04(L11V, A12V, K33R, R39Q, S50Y, S56D, T60A, G73R, W78V, S79Y, T83R, V89L, N93R, S100V, N100cI)
B12: F010302386 (VHH)
VHH: B6 VHH with D72Q, D101S, R102S, N105I
notes: also called F0103387G04(L11V, A12V, K33R, R39Q, S50Y, S56D, T60A, D72Q, W78V, S79Y, T83R, V89L, N93R, D99S, N100cI)
B13: F010302385 (VHH)
VHH: B6 VHH with D72Q, D101S, R102S, N105G
notes: also called F0103387G04(L11V, A12V, K33R, R39Q, S50Y, S56D, T60A, D72Q, W78V, S79Y, T83R, V89L, N93R, D99S, N100cG)
B14: F010302370 (VHH)
VHH: B6 VHH with G73R, D101S, R102S, N105I
notes: also called F0103387G04(L11V, A12V, K33R, R39Q, S50Y, S56D, T60A, G73R, W78V, S79Y, T83R, V89L, N93R, D99S, N100cI)
B15: F010302384 (VHH)
VHH: B6 VHH with D72G, D101S, R102S, N105I
notes: also called F0103387G04(L11V, A12V, K33R, R39Q, S50Y, S56D, T60A, D72G, W78V, S79Y, T83R, V89L, N93R, D99S, N100cI)
B16: F010301840 (VHH)
VHH: EVQLVESGGGVVQPGGSLRLSCAASGPVFNINRMAWYRQAPGKQRELVAYVTPTGDISYTDSVKGRFTISRDGSKRTWSLQMNSLRPEDTALYYCRALLQPDSYSNTRTYWGQGTLVTVSS
notes: also called F0103387G04(R76_V78insT)(L11V, A12V, K33R, R39Q, S50Y, S56D, T83R, V89L, N93R)

Each binder was assayed against T1, huNav1.7α+β1 (human, UniProt Q15858 1-1988; Q07699 19-218) (assay: binding FACS, HEKa/β1 cells).
T1 construct: also called huNav1.7-beta1; HEKa/β1
Procedure: Binding of the ISVDs to cell-expressed Nav1.7α was detected via murine anti-Flag (Sigma, catalog #F1804). Briefly, cells were resuspended in FACS buffer (PBS, 10% FBS, NaN₃) and transferred to a 96-well V-bottom plate at 1×10^5 cells/well. Purified FLAG3-tagged ISVD was diluted in FACS buffer and added to the cells for 30 minutes at 4° C. […] Prior to the read-out, the samples were resuspended in 1 μg/mL propidium iodide (Sigma, catalog #P4170) to exclude dead cells. Between each step, the cells were centrifuged for 5 minutes at 200 grams and washed with 100 μL/well FACS buffer.

| Bmax relative to '535 | EC50 | Binder |
| --- | --- | --- |
| 117% | 4.4 nM | B1 |
| 111% | 5.7 nM | B2 |
| 99% | 5.4 nM | B3 |
| 99% | 5.4 nM | B4 |
| 87% | 7.4 nM | B5 |

What follows are binders tested against T2, huNav1.7α + β1-β2-β3 (human Nav1.7α co-expressed with human Navβ1, Navβ2 and Navβ3 on cells) (human) (assay: binding FACS, CHO FlpIn cells).
T2 construct: also called huNav1.7-beta1-beta2-beta3; CHO FlpIn huNav1.7α + β1-β2-β3
Summary of the method: (§1)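 Flow cytometry read-out of anti-Flag signal on propidium iodide-negative cells measured ISVD binding. Purified FLAG3-tagged ISVD, diluted in PBS with 10% FBS and NaN₃, was applied to the cells for 30 minutes at 4° C.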

| Bmax | EC50 | Binder |
| --- | --- | --- |
| 94% | 7.6 nM | B6 |
| 100% | 20 nM | B7 |
| 93% | 10 nM | B8 |
| 100% | 9.4 nM | B9 |
| 90% | 6 nM | B10 |
| 100% | 17 nM | B11 |
| 100% | 7.3 nM | B12 |
| 100% | 7.9 nM | B13 |
| 100% | 9 nM | B14 |
| 100% | 6.2 nM | B15 |
| 100% | 47 nM | B16 |

These binders were tested against T3, rhNav1.7α + β1-β2-β3 (rhesus Nav1.7α co-expressed with Navβ1, Navβ2 and Navβ3 on cells) (rhesus monkey (α subunit); β subunits …) (assay: binding FACS, CHO FlpIn cells).
T3 construct: also called rhNav1.7-beta1-beta2-beta3; CHO FlpIn rhNav1.7α + β1-β2-β3
Summary of the method: as §1

| Bmax | EC50 | Binder |
| --- | --- | --- |
| 44% | 19 nM | B6 |
| 100% | 11 nM | B7 |
| 23% | 200 nM | B8 |
| 100% | 10 nM | B9 |
| 38% | 24 nM | B10 |
| 100% | 20 nM | B11 |
| 100% | 4.9 nM | B12 |
| 100% | 5 nM | B13 |
| 100% | 7.3 nM | B14 |
| 100% | 4.3 nM | B15 |
| 50% | 48 nM | B16 |

From patent US20240002497A1 (Merck Sharp & Dohme, published 2024)
